Changes are numbered by the printed parent chain. Names may count otherwise. Blank lines part the entries; values can stand above or below the molecule they belong to.
Tests used:
[1] = biological target: CHIP Y230Cfs*9, recombinant (human) (UniProt Q9UNE7); assay: mass photometry
[2] = biological target: CHIP-myc ΔStartCodon (c.3G>A) (human) (UniProt Q9UNE7); assay: native gel or EMSA
[3] = biological target: T1, CHIP-myc wild type (human), Q9UNE7; assay: native gel or EMSA; conditions: remark: other sources report otherwise
T1 chain: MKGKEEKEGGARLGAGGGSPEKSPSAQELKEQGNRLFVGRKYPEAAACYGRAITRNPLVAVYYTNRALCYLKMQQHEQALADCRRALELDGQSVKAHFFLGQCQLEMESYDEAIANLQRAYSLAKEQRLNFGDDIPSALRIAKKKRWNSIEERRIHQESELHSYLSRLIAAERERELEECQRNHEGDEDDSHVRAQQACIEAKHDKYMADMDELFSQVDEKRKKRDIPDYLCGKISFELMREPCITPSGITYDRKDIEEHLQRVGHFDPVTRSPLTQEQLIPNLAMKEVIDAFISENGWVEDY

[4] = biological target: T2, CHIP-myc K30A (human), Q9UNE7; assay: native gel or EMSA; conditions: remark: other sources report otherwise
T2 chain: T1 chain with K30A

Molecule: CHIP-myc ΔStartCodon (c.3G>A) (from UniProt Q9UNE7-1 1-303) (natural protein)
stoichiometry N [2]: 2

B2: CHIP-myc K30A, Q9UNE7-1 1-303 (natural protein)
chain: T1 chain with K30A
stoichiometry N [4]: 2

Continued, values first:

percent of the protein as dimers [1]: 80% | stoichiometry N [1]: 2
Molecule: CHIP Y230Cfs*9, recombinant (from UniProt Q9UNE7-1 1-303) (natural protein)

stoichiometry N [3]: 2
B1: CHIP-myc wild type, Q9UNE7-1 1-303 (natural protein)
chain: T1 chain
